Laboratory results from patent publication US20180002699.

Experiments:
[1] = target: CDK9 (P-TEFb component), P50750
[2] = target: NF-kB p65 (RelA), Q04206
[3] = target: Sp1, P08047
[4] = target: cyclin T1 (P-TEFb component), O60563
[5] = target: T1, full-length synthetic Tat protein (aa 1-72)
T1 chain: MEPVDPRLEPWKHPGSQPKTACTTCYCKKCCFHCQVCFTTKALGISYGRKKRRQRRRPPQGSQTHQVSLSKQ

[6] = target: histone H1 (purified human histones isolated from HEK293T cells), P07305
[7] = target: histone H3 (histones isolated from HEK293T cells)

Sp1, P08047, sequence (P08047 whole entry): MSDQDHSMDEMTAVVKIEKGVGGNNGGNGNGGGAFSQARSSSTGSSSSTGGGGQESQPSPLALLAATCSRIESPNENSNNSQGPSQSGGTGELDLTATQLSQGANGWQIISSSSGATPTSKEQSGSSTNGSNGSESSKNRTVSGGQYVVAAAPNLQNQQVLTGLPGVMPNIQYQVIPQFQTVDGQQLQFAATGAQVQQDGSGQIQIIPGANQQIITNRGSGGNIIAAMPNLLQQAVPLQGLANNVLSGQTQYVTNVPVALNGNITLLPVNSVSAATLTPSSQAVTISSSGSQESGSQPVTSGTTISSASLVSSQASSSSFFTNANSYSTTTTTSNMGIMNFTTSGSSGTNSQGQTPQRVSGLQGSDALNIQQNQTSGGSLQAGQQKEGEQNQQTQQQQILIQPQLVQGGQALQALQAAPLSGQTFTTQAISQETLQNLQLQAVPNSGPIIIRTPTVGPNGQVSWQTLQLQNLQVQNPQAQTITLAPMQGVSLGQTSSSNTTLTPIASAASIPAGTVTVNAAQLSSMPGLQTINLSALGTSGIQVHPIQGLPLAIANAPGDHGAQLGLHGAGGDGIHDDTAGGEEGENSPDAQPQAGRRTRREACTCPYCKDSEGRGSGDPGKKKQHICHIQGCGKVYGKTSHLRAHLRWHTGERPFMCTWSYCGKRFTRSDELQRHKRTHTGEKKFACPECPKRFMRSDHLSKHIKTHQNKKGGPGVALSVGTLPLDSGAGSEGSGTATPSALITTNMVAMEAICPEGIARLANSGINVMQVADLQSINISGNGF
NF-kB p65 (RelA), Q04206, sequence (Q04206 whole entry): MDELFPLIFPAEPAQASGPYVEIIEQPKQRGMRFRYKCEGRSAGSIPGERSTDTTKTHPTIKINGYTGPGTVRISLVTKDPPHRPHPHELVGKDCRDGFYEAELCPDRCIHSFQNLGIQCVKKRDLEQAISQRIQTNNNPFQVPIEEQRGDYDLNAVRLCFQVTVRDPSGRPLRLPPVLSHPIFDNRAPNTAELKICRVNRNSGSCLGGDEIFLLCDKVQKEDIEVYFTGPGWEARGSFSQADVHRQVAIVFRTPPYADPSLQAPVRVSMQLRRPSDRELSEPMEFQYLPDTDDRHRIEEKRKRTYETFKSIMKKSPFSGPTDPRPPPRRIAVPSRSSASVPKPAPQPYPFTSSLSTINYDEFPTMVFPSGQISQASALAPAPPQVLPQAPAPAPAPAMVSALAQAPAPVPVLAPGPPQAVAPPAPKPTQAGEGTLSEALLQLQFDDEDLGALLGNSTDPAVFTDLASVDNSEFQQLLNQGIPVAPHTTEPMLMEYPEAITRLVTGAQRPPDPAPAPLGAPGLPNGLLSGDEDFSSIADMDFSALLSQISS
CDK9 (P-TEFb component), P50750, sequence (P50750 whole entry): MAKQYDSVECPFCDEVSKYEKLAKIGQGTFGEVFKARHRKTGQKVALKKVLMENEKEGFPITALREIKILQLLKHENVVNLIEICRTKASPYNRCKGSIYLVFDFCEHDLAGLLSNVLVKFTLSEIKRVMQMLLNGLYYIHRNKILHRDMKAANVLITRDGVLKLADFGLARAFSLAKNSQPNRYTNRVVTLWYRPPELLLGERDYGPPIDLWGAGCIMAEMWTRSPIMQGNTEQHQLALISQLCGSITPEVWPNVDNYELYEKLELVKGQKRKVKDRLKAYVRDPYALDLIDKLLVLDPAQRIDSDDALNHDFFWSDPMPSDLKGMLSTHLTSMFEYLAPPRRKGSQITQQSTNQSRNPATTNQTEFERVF
cyclin T1 (P-TEFb component), O60563, sequence (O60563 whole entry, the tested form may be a part): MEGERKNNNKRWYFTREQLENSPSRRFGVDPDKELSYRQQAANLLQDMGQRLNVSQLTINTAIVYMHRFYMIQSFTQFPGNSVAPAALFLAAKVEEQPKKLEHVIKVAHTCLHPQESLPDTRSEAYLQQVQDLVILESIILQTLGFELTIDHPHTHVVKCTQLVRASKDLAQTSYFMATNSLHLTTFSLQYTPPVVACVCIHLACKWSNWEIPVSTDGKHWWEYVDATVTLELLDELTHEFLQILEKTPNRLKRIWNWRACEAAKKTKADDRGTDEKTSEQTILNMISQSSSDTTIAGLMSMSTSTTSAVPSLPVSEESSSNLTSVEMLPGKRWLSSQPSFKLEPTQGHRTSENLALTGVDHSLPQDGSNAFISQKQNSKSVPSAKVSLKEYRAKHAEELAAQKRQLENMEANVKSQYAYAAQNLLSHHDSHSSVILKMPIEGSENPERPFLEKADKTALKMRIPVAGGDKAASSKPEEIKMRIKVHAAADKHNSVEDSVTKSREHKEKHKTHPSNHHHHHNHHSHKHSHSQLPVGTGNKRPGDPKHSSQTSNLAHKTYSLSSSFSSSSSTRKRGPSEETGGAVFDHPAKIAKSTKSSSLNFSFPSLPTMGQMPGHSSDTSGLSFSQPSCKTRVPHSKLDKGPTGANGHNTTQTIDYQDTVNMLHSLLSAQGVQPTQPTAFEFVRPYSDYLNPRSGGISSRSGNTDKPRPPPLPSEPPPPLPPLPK
histone H1 (purified human histones isolated from HEK293T cells), P07305, sequence (P07305 whole entry, looked up): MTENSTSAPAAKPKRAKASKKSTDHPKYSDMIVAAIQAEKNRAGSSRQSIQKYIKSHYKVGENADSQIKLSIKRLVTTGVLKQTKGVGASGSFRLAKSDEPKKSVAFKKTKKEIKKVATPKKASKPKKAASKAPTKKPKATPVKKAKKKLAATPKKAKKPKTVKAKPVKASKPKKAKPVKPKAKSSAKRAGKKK

B1: recombinant full-length SMYD5 (SET and MYND domain-containing protein 5) (protein)
chain: MAASMCDVFSFCVGVAGRARVSVEVRFVSSAKGKGLFATQLIRKGETIFVERPLVAAQFLWNALYRYRACDHCLRALEKAEENAQRLTGKPGQVLPHPELCTVRKDLHQNCPHCQVMYCSAECRLAATEQYHQVLCPGPSQDDPLHPLNKLQEAWRSIHYPPETASIMLMARMVATVKQAKDKDRWIRLFSQFCNKTANEEEEIVHKLLGDKFKGQLELLRRLFTEALYEEAVSQWFTPDGFRSLFALVGTNGQGIGTSSLSQWVHACDTLELKPQDREQLDAFIDQLYKDIEAATGEFLNCEGSGLFVLQSCCNHSCVPNAETSFPENNFLLHVTALEDIKPGEEICISYLDCCQRERSRHSRHKILRENYLFVCSCPKCLAEADEPNVTSEEEEEEEEEEEGEPEDAELGDEMTDV
Question: Which results are given for B1?
Answer: in vitro methylation (3H-SAM, autoradiography) [1]: no methylation was detected for Re1A, Sp1, cyclin T1 and CDK9; in vitro methylation (3H-SAM, autoradiography) [2]: no methylation was detected for Re1A, Sp1, cyclin T1 and CDK9; in vitro methylation (3H-SAM, autoradiography) [3]: no methylation was detected for Re1A, Sp1, cyclin T1 and CDK9; in vitro methylation (3H-SAM, autoradiography) [4]: no methylation was detected for Re1A, Sp1, cyclin T1 and CDK9; LC-MS/MS of in vitro methylation products (non-radiolabeled SAM) [5]: This analysis identified a single site, trimethylation of K41, identified in two distinct peptides (not shown). No mono or dimethylation at Tat K41 was observed.; in vitro methylation (3H-SAM, autoradiography) [5]: histones H3 and H1 were weakly and Tat strongly methylated by SMYD5; in vitro methylation (3H-SAM, autoradiography) [6]: histones H3 and H1 were weakly and Tat strongly methylated by SMYD5; in vitro methylation (3H-SAM, autoradiography) [7]: histones H3 and H1 were weakly and Tat strongly methylated by SMYD5
